Measured values published in publication PMC7320145, “Substrate Channeling via a Transient Protein-Protein Complex: The case of D-Glyceraldehyde-3-Phosphate Dehydrogenase and L-Lactate Dehydrogenase” (Scientific Reports, 2020).

Key:
[1] = test system: NC(=O)C1=CN([C@@H]2O[C@H](COP(=O)(O)OP(=O)(O)OC[C@H]3O[C@@H](n4cnc5c(N)ncnc54)[C@H](O)[C@@H]3O)[C@@H](O)[C@H]2O)C=CC1; assay: purified protein; format: biochemical, Sus scrofa; settings: free NADH, 630 μM pyruvate, 50 mM Tris/HCl pH 7.4, 25 °C
[2] = test system: NC(=O)C1=CN([C@@H]2O[C@H](COP(=O)(O)OP(=O)(O)OC[C@H]3O[C@@H](n4cnc5c(N)ncnc54)[C@H](O)[C@@H]3O)[C@@H](O)[C@H]2O)C=CC1; assay: purified protein; settings: free NADH, 630 μM pyruvate, 50 mM Tris/HCl pH 7.4, 25 °C

Chain of phLDH (porcine heart LDH) (Sus scrofa) (chain, as listed by the source): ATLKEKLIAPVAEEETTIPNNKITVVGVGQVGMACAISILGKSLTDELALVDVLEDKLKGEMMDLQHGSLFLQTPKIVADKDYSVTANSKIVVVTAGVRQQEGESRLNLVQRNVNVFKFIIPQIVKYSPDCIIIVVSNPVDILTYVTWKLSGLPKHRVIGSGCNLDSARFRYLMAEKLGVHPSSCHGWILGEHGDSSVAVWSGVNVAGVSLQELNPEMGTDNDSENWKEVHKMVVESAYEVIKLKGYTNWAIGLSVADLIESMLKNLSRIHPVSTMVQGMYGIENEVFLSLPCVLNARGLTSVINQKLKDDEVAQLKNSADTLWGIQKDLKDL

Substance | Km [1] [µM] | Km [2] [µM]
phLDH (porcine heart LDH) (Sus scrofa) | 7.8 ± 0.9 | 
rmLDH (rabbit muscle LDH) (Oryctolagus cuniculus) |  | 4.4 ± 0.4
